From article PMC11352566, “Recombinant C-Terminal Catalytic Domain of Rat L-Gulono Lactone Oxidase Produced in Bacterial Cells Is Enzymatically Active” (Current Issues in Molecular Biology, 2024)

Substrate: O=C1O[C@H]([C@@H](O)CO)[C@H](O)[C@@H]1O
Assay: ascorbic acid formation, colorimetric kit; Lineweaver-Burk
Format: biochemical, Rattus norvegicus
Details: 50 mM potassium phosphate pH 7.0, 50 mM citrate, 1 mM DTT, 10 µM FAD, aerobic (O2), 37 °C

B1: fGULO (full-length rat GULO, fGULO-His) (Rattus norvegicus) (protein)
chain: MVHGYKGVQFQNWAKTYGCSPEVYYQPTSVEEVREVLALAREQKKKVKVVGGGHSPSDIACTDGFMIHMGKMNRVLQVDKEKKQITVEAGILLADLHPQLDEHGLAMSNLGAVSDVTVAGVIGSGTHNTGIKHGILATQVVALTLMTADGEVLECSESRNADVFQAARVHLGCLGIILTVTLQCVPQFHLQETSFPSTLKEVLDNLDSHLKRSEYFRFLWFPHTENVSIIYQDHTNKAPSSASNWFWDYAIGFYLLEFLLWTSTYLPCLVGWINRFFFWMLFNCKKESSNLSHKIFTYECRFKQHVQDWAIPREKTKEALLELKAMLEAHPKVVAHYPVEVRFTRGDDILLSPCFQRDSCYMNIIMYRPYGKDVPRLDYWLAYETIMKKFGGRPHWAKAHNCTQKDFEEMYPTFHKFCDIREKLDPTGMFLNSYLEKVFY
Protein B1 has a Km of 53.5 ± 5 µM.

B2: cGULO (C-terminal catalytic domain of rat GULO, cGULO-His) (Rattus norvegicus) (protein)
chain: NRFFFWMLFNCKKESSNLSHKIFTYECRFKQHVQDWAIPREKTKEALLELKAMLEAHPKVVAHYPVEVRFTRGDDILLSPCFQRDSCYMNIIMYRPYGKDVPRLDYWLAYETIMKKFGGRPHWAKAHNCTQKDFEEMYPTFHKFCDIREKLDPTGMFLNSYLEKVFY
notes: C-terminal cytoplasmic (catalytic ALO) domain, 167 residues, lacks 273 N-terminal residues incl
B2 gave a Km of 42 ± 6.3 µM.
